# Test results taken from patent US20260263647A1 (Dana-Farber, published 2026).
# B1: CD45 minibody (anti-human CD45 antibody fragment, clone BC8 scFv fused to the IgG1 CH3 domain) (other)
# chain: QVQLVESGGGLVQPGGSLKLSCAASGFDFSRYWMSWVRQAPGKGLEWIGEINPTSSTINFTPSLKDKVFISRDNAKNTLYLQMSKVRSEDTALYYCARGNYYRYGDAMDYWGQGTSVTVSKISGGGGSGGGGSGGGGSGGGGSGGGGSSDIVLTQSPASLAVSLGQRATISCRASKSVSTSGYSYLHWYQQKPGQPPKLLIYLASNLESGVPARFSGSGSGTDFTLNIHPVEEEDAATYYCQHSRELPFTFGSGTKLEIKGGGSEPKSPKSADKTHTAPQPREPQVYTLPPSRDELTKNQVSLTCLVKGFYPSDIAVEWESNGQPENNYKTTPPVLDSDGSFFLYSKLTVDKSRWQQGNVFSCSVMHEALHNHYTQKSLSLSPGKDYKDDDKHHHHHH
# notes: also called anti-CD45-minibody probe; human CD45-PET probe
# Experiments:
# [1] = biological target: T1, human CD45 on human peripheral blood mononuclear cells (PBMCs) (human, UniProt P08575 26-1306); experiment: flow cytometry on human PBMCs
# T1 construct: whole, on cells; The target is inferred from the cells used (CD45+ human PBMCs); also called hCD45
# T1 sequence (looked up): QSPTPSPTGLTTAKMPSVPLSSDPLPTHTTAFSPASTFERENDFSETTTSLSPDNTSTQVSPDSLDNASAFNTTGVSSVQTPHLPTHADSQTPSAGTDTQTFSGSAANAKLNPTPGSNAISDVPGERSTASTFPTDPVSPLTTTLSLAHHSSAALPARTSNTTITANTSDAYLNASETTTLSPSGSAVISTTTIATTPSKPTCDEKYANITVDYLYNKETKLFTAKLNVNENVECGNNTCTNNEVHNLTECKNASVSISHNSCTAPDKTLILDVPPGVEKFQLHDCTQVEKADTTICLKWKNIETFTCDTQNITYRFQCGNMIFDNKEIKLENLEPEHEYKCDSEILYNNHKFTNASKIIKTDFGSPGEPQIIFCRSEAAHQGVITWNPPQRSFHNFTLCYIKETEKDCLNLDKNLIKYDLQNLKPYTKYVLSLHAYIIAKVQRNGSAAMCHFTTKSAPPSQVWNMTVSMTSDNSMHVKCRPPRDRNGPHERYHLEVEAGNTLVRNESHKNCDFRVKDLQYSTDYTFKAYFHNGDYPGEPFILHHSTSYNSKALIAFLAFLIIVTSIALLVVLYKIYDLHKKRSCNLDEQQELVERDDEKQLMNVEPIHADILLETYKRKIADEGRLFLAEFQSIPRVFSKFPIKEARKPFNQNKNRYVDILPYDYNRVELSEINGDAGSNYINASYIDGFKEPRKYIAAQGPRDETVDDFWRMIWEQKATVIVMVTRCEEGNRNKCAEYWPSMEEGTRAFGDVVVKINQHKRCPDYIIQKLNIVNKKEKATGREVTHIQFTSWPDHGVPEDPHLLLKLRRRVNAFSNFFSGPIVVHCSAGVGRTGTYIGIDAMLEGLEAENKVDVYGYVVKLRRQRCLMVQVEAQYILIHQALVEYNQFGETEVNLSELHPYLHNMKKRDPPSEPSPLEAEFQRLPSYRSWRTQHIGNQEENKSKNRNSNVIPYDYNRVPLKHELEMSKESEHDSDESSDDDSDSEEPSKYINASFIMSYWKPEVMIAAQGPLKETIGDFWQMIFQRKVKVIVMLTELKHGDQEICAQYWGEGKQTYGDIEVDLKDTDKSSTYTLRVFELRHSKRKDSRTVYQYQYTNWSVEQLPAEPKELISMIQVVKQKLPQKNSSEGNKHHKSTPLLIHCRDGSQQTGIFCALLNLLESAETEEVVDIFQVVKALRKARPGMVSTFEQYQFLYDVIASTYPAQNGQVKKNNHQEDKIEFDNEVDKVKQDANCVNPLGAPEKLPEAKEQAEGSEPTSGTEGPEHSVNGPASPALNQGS
# [2] = biological target: T1, human CD45 on human peripheral blood …; experiment: flow cytometry, staining of human PBMCs with different concentrations of the minibody
binder,measurement,setting,value
B1,EC50,[1],~5 nM
same,EC50,[2],~10 nM
